The record followed here is article PMC3567105, “Analysis of the Enzymatic Properties of a Broad Family of Alanine Aminotransferases” (PLoS ONE, 2013).

Holding throughout (experiment): cells, lysate or membranes
Substrate in data set [1]: C[C@H](N)C(=O)O
Particulars: 10 mM 2-oxoglutarate, 0.1 M Tris-HCl pH 8.0, 20°C, 10 µM PLP, unpurified extract.

Substrate in data set [2]: O=C(O)CCC(=O)C(=O)O
The format is biochemical, Saccharomyces cerevisiae. The settings on record: 100 mM alanine, 0.1 M Tris-HCl pH 8.0, 20°C, 10 µM PLP, unpurified extract.

Substrate in data set [3]: N[C@@H](CCC(=O)O)C(=O)O
The format is biochemical, Pyrococcus furiosus. Particulars: 10 mM pyruvate, 100 mM NH4Cl, 0.1 M Tris-HCl pH 8.0, 20°C, 10 µM PLP, unpurified extract.

Substrate in data set [4]: O=C(O)CCC(=O)C(=O)O
The format is biochemical, Pyrococcus furiosus. The settings on record: 100 mM alanine, 0.1 M Tris-HCl pH 8.0, 20°C, 10 µM PLP, unpurified extract.

Substrate in data set [5]: CC(=O)C(=O)O
The format is biochemical, Arabidopsis thaliana. Particulars: 50 mM glutamate, 100 mM NH4Cl, 0.1 M Tris-HCl pH 8.0, 20°C, 10 µM PLP, unpurified extract.

Substrate in data set [6]: O=C(O)CCC(=O)C(=O)O
The format is biochemical, Arabidopsis thaliana. The settings on record: 100 mM alanine, 0.1 M Tris-HCl pH 8.0, 20°C, 10 µM PLP, unpurified extract.

Substrate in data set [7]: CC(=O)C(=O)O
The format is biochemical, Hordeum vulgare. The settings on record: 50 mM glutamate, 100 mM NH4Cl, 0.1 M Tris-HCl pH 8.0, 20°C, 10 µM PLP, unpurified extract.

Substrate in data set [8]: O=C(O)CCC(=O)C(=O)O
The format is biochemical, Hordeum vulgare. The settings on record: 100 mM alanine, 0.1 M Tris-HCl pH 8.0, 20°C, 10 µM PLP, unpurified extract.

Substrate in data set [9]: N[C@@H](CCC(=O)O)C(=O)O
The format is biochemical, Arabidopsis thaliana. The settings on record: 10 mM pyruvate, 100 mM NH4Cl, 0.1 M Tris-HCl pH 8.0, 20°C, 10 µM PLP, unpurified extract.

Substrate in data set [10]: N[C@@H](CCC(=O)O)C(=O)O
The format is biochemical, Mus musculus. Particulars: 10 mM pyruvate, 100 mM NH4Cl, 0.1 M Tris-HCl pH 8.0, 20°C, 10 µM PLP, unpurified extract.

Substrate in data set [11]: O=C(O)CCC(=O)C(=O)O
The format is biochemical, Mus musculus. Particulars: 100 mM alanine, 0.1 M Tris-HCl pH 8.0, 20°C, 10 µM PLP, unpurified extract.

B1: ScAlaAT1 (Saccharomyces cerevisiae S288C) (protein)
chain: SSSWIVAQNHRRSLSGQSSLNDLRHLNRFPHHTLKTSNNEFYPAEQLTLEDVNENVLKAKYAVRGAIPMRAEELKAQLEKDPQSLPFDRIINANIGNPQQLQQKPLTYYRQVLSLLQYPELLNQNEQQLVDSKLFKLDAIKRAKSLMEDIGGSVGAYSSSQGVEGIRKSVAEFITKRDEGEISYPEDIFLTAGASAAVNYLLSIFCRGPETGVLIPIPQYPLYTATLALNNSQALPYYLDENSGWSTNPEEIETVVKEAIQNEIKPTVLVVINPGNPTGAVLSPESIAQIFEVAAKYGTVVIADEVYQENIFPGTKFHSMKKILRHLQREHPGKFDNVQLASLHSTSKGVSGECGQRGGYMELTGFSHEMRQVILKLASISLCPVVTGQALVDLMVRPPVEGEESFESDQAERNSIHEKLITRAMTLYETFNSLEGIECQKPQGAMYLFPKIDLPFKAVQEARHLELTPDEFYCKKLLESTGICTVPGSGFGQEPGTYHLRTTFLAPGLEWIKKWESFHKEFFDQYRD
notes: untagged, pBAD18-Kan, E. coli TR61, desalted whole-protein extract, not purified
Consider B1, for which the figures for the Km in [1] and in [2] were 300 ± 100 µM and 500 ± 100 µM, respectively.

B2: PfAlaAT (Pyrococcus furiosus DSM 3638) (protein)
chain: MIRASKRALSVEYAIRDVVLPARELEKKGIKVIRLNIGDPVKFDFQPPEHMKEAYCKAIKEGHNYYGDSEGLPELRKAIVEREKRKNGVDITPDDVRVTAAVTEALQLIFGALLDPGDEILVPGPSYPPYTGLVKFYGGKPVEYRTIEEEDWQPDIDDIRKKITDRTKAIAVINPNNPTGALYDKKTLEEILNIAGEYEIPVISDEIYDLMTYEGEHISPGSLTKDVPVIVMNGLSKVYFATGWRLGYMYFVDPENKLSEVREAIDRLARIRLCPNTPAQFAAIAGLTGPMDYLKEYMKKLKERRDYIYKRLNEIPGISTTKPQGAFYIFPKIEVGPWKNDKEFVLDVLHNAHVLFVHGSGFGEYGAGHFRAVFLPPIEILEEAMDRFEKFMKERLKE
notes: as for B1
In the case of B2, the Km in [3] was 900 ± 100 µM; in [4], 20 ± 0 µM.

B3: AtGGAT1 (Arabidopsis thaliana) (protein)
chain: MALKALDYDTLNENVKKCQYAVRGELYLRASELQKEGKKIIFTNVGNPHALGQKPLTFPRQVVALCQAPFLLDDPNVGMLFPADAIARAKHYLSLTSGGLGAYSDSRGLPGVRKEVAEFIQRRDGYPSDPELIFLTDGASKGVMQILNCVIRGNGDGILVPVPQYPLYSATISLLGGTLVPYYLDESENWGLDVANLRQSVAQARSQGITVRAMVIINPGNPTGQCLSEANIREILKFCYNEKLVLLGDEVYQQNIYQDERPFISSKKVLMEMGSPFSKEVQLVSFHTVSKGYWGECGQRGGYFEMTNLPPRVVEEIYKVASIALSPNVSAQIFMGLMVNPPKPGDISYDQFARESKGILESLRRRARLMTDGFNSCKNVVCNFTEGAMYSFPQIRLPTGALQAAKQAGKVPDVFYCLKLLEATGISTVPGSGFGQKEGVFHLRTTILPAEDEMPEIMDSFKKFNDEFMTQYDNNFGYSKM
notes: as for B1
On to B3, for which the figures for the Km in [1], in [5] and in data set [6] were 1900 ± 500 µM, 600 ± 100 µM and 200 ± 100 µM, respectively.

B4: HvAlaAT (Hordeum vulgare) (protein)
chain: MAATVAVDNLNPKVLKCEYAVRGEIVIHAQRLQEQLKTQPGSLPFDEILYCNIGNPQSLGQQPVTFFREVLALCDHPDLLQREEIKTLFSADSISRAKQILAMIPGRATGAYSHSQGIKGLRDAIASGIASRDGFPANADDIFLTDGASPGVHLMMQLLIRNEKDGILVPIPQYPLYSASIALHGGALVPYYLNESTGWGLETSDVKKQLEDARSRGINVRALVVINPGNPTGQVLAEENQYDIVKFCKNEGLVLLADEVYQENIYVDNKKFHSFKKIVRSLGYGEEDLPLVSYQSVSKGYYGECGKRGGYFEITGFSAPVREQIYKIASVNLCSNITGQILASLVMNPPKASDESYASYKAEKDGILASLARRAKALEHAFNKLEGITCNEAEGAMYVFPQICLPQKAIEAAKAANKAPDAFYALRLLESTGIVVVPGSGFGQVPGTWHFRCTILPQEDKIPAVISRFTVFHEAFMSEYRD
notes: untagged, from cDNA, pBAD18-Kan, E. coli TR61, desalted whole-protein extract, not purified
Turning to B4, the Km was found to be 100 ± 0 µM in data set [7] and 200 ± 0 µM in [8].

B5: AtGGAT2 (Arabidopsis thaliana) (protein)
chain: MSLKALDYESLNENVKNCQYAVRGELYLRASELQKEGKKIIFTNVGNPHALGQKPLTFPRQVVSLCQAPFLLDDPNVGMIFPADAIARAKHYLSLTSGGLGAYSDSRGLPGVRKEVAEFIERRDGYPSDPELIFLTDGASKGVMQILNCVIRGQKDGILVPVPQYPLYSATISLLGGTLVPYYLEESENWGLDVNNLRQSVAQARSQGITVRAMVIINPGNPTGQCLSEANIREILRFCCDERLVLLGDEVYQQNIYQDERPFISSKKVLMDMGAPISKEVQLISFHTVSKGYWGECGQRGGYFEMTNIPPRTVEEIYKVASIALSPNVSAQIFMGLMVSPPKPGDISYDQFVRESKGILESLRRRARMMTDGFNSCKNVVCNFTEGAMYSFPQIKLPSKAIQAAKQAGKVPDVFYCLKLLEATGISTVPGSGFGQKEGVFHLRTTILPAEEEMPEIMDSFKKFNDEFMSQYADNFGYSRM
notes: as for B1
In the case of B5, the Km was determined as 1200 ± 100 µM in data set [1], 18500 ± 2700 µM in data set [5] and 8800 ± 1800 µM in data set [6].

B6: AtAlaAT1 (Arabidopsis thaliana) (protein)
chain: SASDSSSSLPVTLDTINPKVIKCEYAVRGEIVNIAQKLQEDLKTNKDAYPFDEIIYCNIGNPQSLGQQPITFFREVLALCSYTALLDESATHGLFSSDSIERAWKILDQIPGRATGAYSHSQGIKGLRDAIADGIEARDGFPADPNDIFMTDGASPGVHMMMQLLITSEKDGILCPIPQYPLYSASIALHGGTLVPYYLDEASGWGLEISELKKQLEDARSKGITVRALAVINPGNPTGQVLSEENQRDVVKFCKQEGLVLLADEVYQENVYVPDKKFHSFKKVARSMGYGEKDLALVSFQSVSKGYYGECGKRGGYMEVTGFTSDVREQIYKMASVNLCSNISGQILASLIMSPPKPGDDSYESYIAEKDGILSSLARRAKTLEEALNKLEGVTCNRAEGAMYLFPCLHLPQKAIAAAEAEKTAPDNFYCKRLLKATGIVVVPGSGFRQVPGTWHFRCTILPQEDKIPAIVDRLTAFHQSFMDEFRD
notes: as for B1
As for B6, the Km in data set [1] amounted to 2400 ± 500 µM; in data set [5] it was 100 ± 0 µM; in data set [6], 100 ± 0 µM.

B7: AtAlaAT2 (Arabidopsis thaliana) (protein)
chain: SSTSEMSASDSTSSLPVTLDSINPKVLKCEYAVRGEIVNIAQKLQEDLKTNKDAYPFDEIIYCNIGNPQSLGQLPIKFFREVLALCDHASLLDESETHGLFSTDSIDRAWRILDHIPGRATGAYSHSQGIKGLRDVIAAGIEARDGFPADPNDIFLTDGASPAVHMMMQLLLSSEKDGILSPIPQYPLYSASIALHGGSLVPYYLDEATGWGLEISDLKKQLEEARSKGISVRALVVINPGNPTGQVLAEENQRDIVNFCKQEGLVLLADEVYQENVYVPDKKFHSFKKVARSLGYGEKDISLVSFQSVSKGYYGECGKRGGYMEVTGFTSDVREQIYKMASVNLCSNISGQILASLVMSPPKPGDDSYDSYMAERDGILSSMAKRAKTLEDALNSLEGVTCNRAEGAMYLFPRINLPQKAIEAAEAEKTAPDAFYCKRLLNATGVVVVPGSGFGQVPGTWHFRCTILPQEDKIPAIVNRLTEFHKSFMDEFRN
notes: as for B1
Turning to B7, the Km in data set [5] came out at 5100 ± 900 µM; in data set [9] it was 4900 ± 1100 µM; in data set [6] it was 1000 ± 100 µM.

B8: MmAlaAT1 (Mus musculus) (protein)
chain: ASQRNDRIQASRNGLKGKVLTLDTMNPCVRRVEYAVRGPIVQRALELEQELRQGVKKPFTEVIRANIGDAQAMGQRPITFFRQVLALCVYPNLLSSPDFPEDAKRRAERILQACGGHSLGAYSISSGIQPIREDVAQYIERRDGGIPADPNNIFLSTGASDAIVTMLKLLVAGEGRARTGVLIPIPQYPLYSAALAELDAVQVDYYLDEERAWALDIAELRRALCQARDRCCPRVLCVINPGNPTGQVQTRECIEAVIRFAFEEGLFLMADEVYQDNVYAEGSQFHSFKKVLTEMGPPYATQQELASFHSVSKGYMGECGFRGGYVEVVNMDAEVQKQMAKLMSVRLCPPVPGQALMGMVVSPPTPSEPSFKQFQAERQEVLAELAAKAKLTEQVFNEAPGIRCNPVQGAMYSFPQIQLPLKAVQRAQDLGLAPDMFFCLCLLEETGICVVPGSGFGQQEGTYHFRMTILPPMEKLRVLLEKLRHFHAKFTHEYS
notes: as for B1
Regarding B8, the Km was 13000 ± 2400 µM in [10] and 100 ± 100 µM in data set [11].
